Publication PMC5794992

Molecular target: BraA.Gα1 (Gα subunit of B. rapa), GAL4 DNA-binding domain fusion (Brassica rapa)
Sequence (P18064 other isoform, or with tags, fused parts or gaps): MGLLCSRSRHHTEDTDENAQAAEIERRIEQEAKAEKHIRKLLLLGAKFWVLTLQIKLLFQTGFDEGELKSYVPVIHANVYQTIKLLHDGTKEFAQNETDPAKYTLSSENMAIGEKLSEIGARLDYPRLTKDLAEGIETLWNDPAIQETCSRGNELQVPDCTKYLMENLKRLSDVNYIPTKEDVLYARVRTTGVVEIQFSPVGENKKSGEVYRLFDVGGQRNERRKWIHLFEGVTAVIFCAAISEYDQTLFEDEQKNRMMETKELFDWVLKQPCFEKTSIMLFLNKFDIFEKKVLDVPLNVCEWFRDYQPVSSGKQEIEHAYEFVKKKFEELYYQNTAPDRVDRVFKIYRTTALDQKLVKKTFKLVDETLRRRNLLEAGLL

Km of steady state Pi release (ENZchek) from 1 μM GTP-loaded BraA.Gα1 with 0.1–2.0 μM purified RGS-domain of BraA.RGS1 (His-tagged proteins from E. coli)	Km of steady state Pi release (ENZchek) from 1 μM GTP-loaded BraA.Gα1 with 0.1–2.0 μM purified RGS-domain of BraA.RGS2 (His-tagged proteins from E. coli)	Substance
0.244		RGS-domain of BraA.RGS1 (C-terminal cytosolic domain containing the RGS-box), GAL4 activation domain fusion (domain or fragment)
	0.311	RGS-domain of BraA.RGS2 (C-terminal cytosolic domain containing the RGS-box), GAL4 activation domain fusion (domain or fragment)
